± gives the uncertainty stated by the source.
Assay: self-splicing fitness, log relative to wild type (ln ratio); higher = more splicing; Tetrahymena group I intron in knt gene, E. coli kanamycin selection, DiMSum; sequences stand for … in CUCUCU…GGAGGGAAAAGUUAUCAGGCAUGCACCUGGUAGCUAGUCUUUAAACCAAUAGAUUGCAUCGGUUUAAAAGGCAAGACCGUCAAAUUGCGGGAAAGGGGUCAACAGCCGUUCAGUACCAAGUCUCAGGGGAAACUUUGAGAUGGCCUUGCAAAGGGUAUGGUAAUAAGCUGACGGACAUGGUCCUAACCACGCAGCCAAGUCCUAAGUCAACAGAUCUUCUGUUGAUAUGGAUGCAGUUCACAGACUAAAUGUCGGUCGGGGAAGAUGUAUUCUUCUCAUAAGAUAUAGUCGGACCUCUCCUUAAUGGGAGCUAGCGGAUGAAGUGAUGCAACACUGGAGCCGCUGGGAACUAAUUUGUAUGCGAAAGUAUAUUGAUUAGUUUUGGAGUACUCGUGGUCG
Procedure, shortened: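 Colonies from six replicate transformations of E. coli BL21(DE3) were pooled and amplicon-sequenced on an Illumina HiSeq 2500. The library placed an intron with all eight P1ex-region nucleotides randomised inside the knt kanamycin-resistance gene on pET-22b(+), and cells grew overnight at 37°C or 30°C on LB agar with or without 25 μg/mL kanamycin (plus 100 μg/mL carbenicillin, 50 μM IPTG, 0.2% rhamnose). Fitness is the DiMSum error-weighted combination of wild-type-normalised replicate fold changes, kanamycin versus none.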

Sequence	self-splicing fitness (ln) (30 °C)	self-splicing fitness (ln) (37 °C)
GACCAGCAAUAUUACGGCUU	-0.0255 ± 0.055	-0.293 ± 0.07
GACCAGCAAUAUUACGGGAA	-0.695 ± 0.06	-0.941 ± 0.067
GACCAGCAAUAUUACGGUAC	-2.05 ± 0.09	-1.75 ± 0.092
GACCAGCAAUAUUACGGUGU	-0.661 ± 0.055	-0.365 ± 0.084
GACCAGCAAUAUUACGUCAU	-1.66 ± 0.058	-0.747 ± 0.062
GACCAGCAAUAUUACGUCCC	-0.756 ± 0.12	-0.522 ± 0.13
GACCAGCAAUAUUACGUCUG	-2.93 ± 0.23	-1.74 ± 0.21
GACCAGCAAUAUUACGUGAG	-1.33 ± 0.055	-1 ± 0.064
GACCAGCAAUAUUACGUGGC	-4.25 ± 0.21	-2.88 ± 0.16
GACCAGCAAUAUUACGUUAC	-1.65 ± 0.052	-0.38 ± 0.067
GACCAGCAAUAUUACGUUUA	-0.372 ± 0.051	-0.0736 ± 0.062
GACCAGCAAUAUUACGUUUC	-0.69 ± 0.065	-0.568 ± 0.083
GACGAGCAAUAUUACGAAAG	-3.59 ± 0.43	-1.53 ± 0.37
GACGAGCAAUAUUACGAACU	-1.83 ± 0.11	-0.278 ± 0.11
GACGAGCAAUAUUACGACUC	-1.36 ± 0.15	0.797 ± 0.18
GACGAGCAAUAUUACGACUG	-2.47 ± 0.21	-0.443 ± 0.25
GACGAGCAAUAUUACGCAAC	-2.11 ± 0.29	-2.31 ± 0.42
GACGAGCAAUAUUACGCCCA	-2.06 ± 0.3	-2.17 ± 0.28
GACGAGCAAUAUUACGCGAA	-2.91 ± 0.31	-1.16 ± 0.21
GACGAGCAAUAUUACGCGCA	-1.71 ± 0.23	-1.3 ± 0.21
GACGAGCAAUAUUACGCGCU	-3.04 ± 0.48	-2.87 ± 0.31
GACGAGCAAUAUUACGCUGU	-3.17 ± 0.3	-2.9 ± 0.33
GACGAGCAAUAUUACGGACA	-1.57 ± 0.43	-0.484 ± 0.14
GACGAGCAAUAUUACGGAUG	-2.45 ± 0.24	-1.12 ± 0.16

Sequence	self-splicing fitness (ln) (30 °C)	self-splicing fitness (ln) (37 °C)
GACGAGCAAUAUUACGGCGG	-2.65 ± 0.33	-2.42 ± 0.29
GACGAGCAAUAUUACGGCUU	-1.43 ± 0.11	-0.332 ± 0.14
GACGAGCAAUAUUACGGGCU	-3.61 ± 0.2	-2.21 ± 0.19
GACGAGCAAUAUUACGGUUA	-1.65 ± 0.12	-0.972 ± 0.1
GACGAGCAAUAUUACGUUCG	-4.1 ± 0.24	-2.24 ± 0.23
GACUAGCAAUAUUACGAAAA	-2.41 ± 0.25	-0.685 ± 0.15
GACUAGCAAUAUUACGAAAC	-1.3 ± 0.12	-0.114 ± 0.13
GACUAGCAAUAUUACGAAUA	-2.54 ± 0.24	-0.356 ± 0.21
GACUAGCAAUAUUACGAGAC	-3.56 ± 0.43	-1.76 ± 0.27
GACUAGCAAUAUUACGAUUC	-0.598 ± 0.065	-0.35 ± 0.072
GACUAGCAAUAUUACGCAGC	-3.5 ± 0.23	-2.2 ± 0.31
GACUAGCAAUAUUACGCAUG	-1.24 ± 0.063	-0.455 ± 0.075
GACUAGCAAUAUUACGCCAC	–	-1.76 ± 0.41
GACUAGCAAUAUUACGCCGU	-2.15 ± 0.11	-0.995 ± 0.1
GACUAGCAAUAUUACGCCUG	-0.826 ± 0.12	-0.091 ± 0.14
GACUAGCAAUAUUACGCGUC	-3.14 ± 0.16	-2.78 ± 0.23
GACUAGCAAUAUUACGCUAC	-1.81 ± 0.16	-1.33 ± 0.2
GACUAGCAAUAUUACGCUCG	-1.01 ± 0.14	-0.0622 ± 0.19
GACUAGCAAUAUUACGCUCU	-1.87 ± 0.12	-0.12 ± 0.14
GACUAGCAAUAUUACGGCCA	-0.241 ± 0.16	-0.327 ± 0.26
GACUAGCAAUAUUACGGCCG	-0.632 ± 0.13	-0.578 ± 0.16
GACUAGCAAUAUUACGGGUA	-0.752 ± 0.076	-0.669 ± 0.078
GACUAGCAAUAUUACGGUCA	-1.13 ± 0.27	-1.36 ± 0.26
GACUAGCAAUAUUACGGUUC	-3.18 ± 0.17	-2.7 ± 0.32

Sequence	self-splicing fitness (ln) (30 °C)	self-splicing fitness (ln) (37 °C)
GACUAGCAAUAUUACGGUUG	-1.25 ± 0.072	-0.449 ± 0.092
GACUAGCAAUAUUACGUACC	-1.65 ± 0.15	-0.961 ± 0.14
GACUAGCAAUAUUACGUACG	-0.653 ± 0.066	-0.585 ± 0.098
GACUAGCAAUAUUACGUAGA	-0.815 ± 0.077	-1.17 ± 0.097
GACUAGCAAUAUUACGUAUG	-1.82 ± 0.068	-1.33 ± 0.091
GACUAGCAAUAUUACGUCUG	-3.86 ± 0.25	-1.57 ± 0.23
GACUAGCAAUAUUACGUUAA	-2.16 ± 0.12	-0.716 ± 0.11
GACUAGCAAUAUUACGUUAU	-2.4 ± 0.098	-1.28 ± 0.11
GACUAGCAAUAUUACGUUCG	-3.18 ± 0.22	-0.787 ± 0.13
GACUAGCAAUAUUACGUUUG	-2.63 ± 0.13	-2.46 ± 0.2
GAGAAGCAAUAUUACGAACU	-0.774 ± 0.085	-0.288 ± 0.092
GAGAAGCAAUAUUACGAAUA	-1.88 ± 0.25	-0.917 ± 0.2
GAGAAGCAAUAUUACGACCU	0.392 ± 0.1	-0.128 ± 0.096
GAGAAGCAAUAUUACGAUCU	-1.66 ± 0.097	-0.515 ± 0.095
GAGAAGCAAUAUUACGAUGA	-1.04 ± 0.12	-0.334 ± 0.11
GAGAAGCAAUAUUACGAUUA	-0.739 ± 0.099	0.245 ± 0.081
GAGAAGCAAUAUUACGCAAA	-3.07 ± 0.14	-1.8 ± 0.15
GAGAAGCAAUAUUACGCCGU	-2.18 ± 0.21	-1.89 ± 0.21
GAGAAGCAAUAUUACGCGCC	-1.88 ± 0.33	-0.596 ± 0.23
GAGAAGCAAUAUUACGCGUC	-3.46 ± 0.34	-2.31 ± 0.33
GAGAAGCAAUAUUACGCUAC	-3.38 ± 0.18	-1.58 ± 0.18
GAGAAGCAAUAUUACGCUCU	-3.26 ± 0.35	-2.25 ± 0.44
GAGAAGCAAUAUUACGGACU	-0.326 ± 0.091	-0.101 ± 0.11
GAGAAGCAAUAUUACGGCAU	-0.391 ± 0.07	0.567 ± 0.11

Sequence	self-splicing fitness (ln) (30 °C)	self-splicing fitness (ln) (37 °C)
GAGAAGCAAUAUUACGGCUC	–	-2.07 ± 0.21
GAGAAGCAAUAUUACGGGUG	-1.72 ± 0.15	-1.88 ± 0.14
GAGAAGCAAUAUUACGGUCA	-0.263 ± 0.1	0.383 ± 0.12
GAGAAGCAAUAUUACGUAAA	-2.16 ± 0.14	-0.647 ± 0.17
GAGAAGCAAUAUUACGUCAU	-2.57 ± 0.097	-0.577 ± 0.089
GAGAAGCAAUAUUACGUCGA	-1.54 ± 0.13	-1.09 ± 0.14
GAGAAGCAAUAUUACGUCUC	-4.38 ± 0.46	-2.39 ± 0.24
GAGAAGCAAUAUUACGUGAU	-1.81 ± 0.084	-0.801 ± 0.11
GAGAAGCAAUAUUACGUGUC	-3.95 ± 0.27	-2.1 ± 0.33
GAGAAGCAAUAUUACGUUCA	-0.919 ± 0.2	-0.374 ± 0.22
GAGAAGCAAUAUUACGUUCC	-3.57 ± 0.32	-1.65 ± 0.29
GAGCAGCAAUAUUACGAAAA	-2.68 ± 0.39	–
GAGCAGCAAUAUUACGAAUU	-1.95 ± 0.14	-1.45 ± 0.15
GAGCAGCAAUAUUACGACGC	0.00947 ± 0.079	0.534 ± 0.1
GAGCAGCAAUAUUACGAGAC	-2.97 ± 0.3	-0.985 ± 0.2
GAGCAGCAAUAUUACGAGGC	-2.67 ± 0.47	–
GAGCAGCAAUAUUACGCGUC	-3.39 ± 0.29	-2.8 ± 0.3
GAGCAGCAAUAUUACGCGUU	-3.08 ± 0.12	-1.32 ± 0.12
GAGCAGCAAUAUUACGCUAA	-1.3 ± 0.15	-0.144 ± 0.18
GAGCAGCAAUAUUACGCUCG	-2.11 ± 0.33	-0.285 ± 0.22
GAGCAGCAAUAUUACGGAGU	-3.32 ± 0.26	-3.07 ± 0.4
GAGCAGCAAUAUUACGGCCC	-1.51 ± 0.15	-1.09 ± 0.19
GAGCAGCAAUAUUACGGCCG	-1.05 ± 0.17	-0.59 ± 0.27
GAGCAGCAAUAUUACGGGCC	-2.94 ± 0.33	-1.21 ± 0.29

Source: the supplement of paper PMC7877785
